The target of this assay is RNF111 RING (Homo sapiens), Q6ZNA4.
RNF111 RING (Homo sapiens), Q6ZNA4, sequence (Q6ZNA4 939-986): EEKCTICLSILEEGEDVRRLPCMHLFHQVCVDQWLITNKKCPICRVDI

B1: UBXN7 UAS, O94888 (protein)
chain: IDKKLTTLADLFRPPIDLMHKGSFETAKECGQMQNKWLMINIQNVQDFACQCLNRDVWSNEAVKNIIREHFIFWQVYHDSEEGQRYIQFYKLGDFPYVSILDPRTGQKLVEWHQLDVSSFLDQVTGFLGE
As to B1, the Kd amounted to 1000 nM.

Values taken from article PMC10080908.
